The source of these data is US11214595B2, “BK channel-modulating peptides and their use” (UNIVERSITY OF SOUTH FLORIDA, priority 2016, dated 2022).

Positions of bridges follow the written chain, without caps; N, C: chain ends. Residues, ends and D or L forms follow the SMILES beside them.

Data set [1] can be described thus: Blood-brain barrier crossing after application to the dural surface of the auditory midbrain. Particulars: mouse, in vivo. As to the method:
The peptide can shuttle both itself and small molecule cargo across the blood-brain barrier of the mammalian brain. […] High dose application supports these peptides' use for suppressing audiogenic seizures, while the lower dose supports these peptides' use for reducing the effects of age-related hearing loss.
When this compound was applied to the dura, fluorescence could be seen at ˜1200 microns in depth after 8 hours.

The target of data set [2] is T1, human BKα channel (ZERO isoform) (Homo sapiens, UniProt Q12791).
T1 construct: expressed in transfected cells; host or cells: HEK293
T1 sequence (Q12791 1-1178 isoform Q12791-5): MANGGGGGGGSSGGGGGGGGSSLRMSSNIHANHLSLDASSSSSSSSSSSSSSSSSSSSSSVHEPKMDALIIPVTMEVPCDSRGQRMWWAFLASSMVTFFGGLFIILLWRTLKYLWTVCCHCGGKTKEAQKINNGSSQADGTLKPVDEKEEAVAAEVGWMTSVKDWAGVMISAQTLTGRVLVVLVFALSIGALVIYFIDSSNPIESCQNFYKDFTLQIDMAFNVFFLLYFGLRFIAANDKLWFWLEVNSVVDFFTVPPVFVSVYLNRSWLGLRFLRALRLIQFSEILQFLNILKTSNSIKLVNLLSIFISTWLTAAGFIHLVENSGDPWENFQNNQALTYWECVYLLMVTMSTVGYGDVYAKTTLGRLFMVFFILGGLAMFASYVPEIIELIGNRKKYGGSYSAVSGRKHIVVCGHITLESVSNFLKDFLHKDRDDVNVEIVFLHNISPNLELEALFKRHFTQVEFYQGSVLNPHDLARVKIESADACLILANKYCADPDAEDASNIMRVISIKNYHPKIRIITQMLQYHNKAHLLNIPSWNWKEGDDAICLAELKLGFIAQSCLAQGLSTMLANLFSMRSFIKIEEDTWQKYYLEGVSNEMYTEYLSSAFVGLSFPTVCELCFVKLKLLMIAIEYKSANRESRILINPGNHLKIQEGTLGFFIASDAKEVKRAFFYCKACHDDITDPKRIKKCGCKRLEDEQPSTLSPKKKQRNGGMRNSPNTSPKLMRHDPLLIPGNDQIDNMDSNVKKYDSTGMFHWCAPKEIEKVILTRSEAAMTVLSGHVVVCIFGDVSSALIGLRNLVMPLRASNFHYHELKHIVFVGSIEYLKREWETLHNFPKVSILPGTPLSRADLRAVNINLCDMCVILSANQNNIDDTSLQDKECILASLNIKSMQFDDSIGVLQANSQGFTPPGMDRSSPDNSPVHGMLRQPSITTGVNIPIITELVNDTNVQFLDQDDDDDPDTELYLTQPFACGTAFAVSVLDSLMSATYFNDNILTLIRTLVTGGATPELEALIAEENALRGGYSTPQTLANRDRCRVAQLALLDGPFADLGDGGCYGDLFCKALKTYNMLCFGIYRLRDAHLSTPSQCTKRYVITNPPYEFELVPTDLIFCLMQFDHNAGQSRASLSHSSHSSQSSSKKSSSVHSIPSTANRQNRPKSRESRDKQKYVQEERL
The experiment in a line: Patch-clamp recordings of human BKα channels (ZERO isoform) expressed in HEK293 cells, inside-out patches. The format is cell-based. The protocol: FIGS. 6A-6H. LS3 alters the gating of human BK channels. Human BKα channels (ZERO isoform) expressed in HEK293 cells were recorded in inside-out patches. Peptide was applied by diffusion to the extracellular side. Intracellular calcium held at 750 nM. […] FIGS. 6C-6E, Bar graphs displaying the post-peptide Po relative to the starting Po across LS3 concentrations. […] FIG. 6F-6H, Bar graphs displaying the post-peptide Po relative to the starting Po for either 500 nM LS3 (cyclic) or 500 nM of the reduced form of LS3 (linear).
FIGS. 7A-7C. LS3 alters open and closed dwell times of the human BK channel. Single human BKα channels (ZERO isoform) expressed in HEK293 cells were recorded in inside-out patches. Intracellular calcium held at 750 nM. FIGS. 7A-7C, Bar graphs showing one example of changes in open and closed dwell times before (red) and after (black) 500 nM LS3 (100 mV). Channel open dwell times shortened (FIG. 7A).
FIGS. 11A-11C. The 9-amino acid peptides with an N- and C-terminal disulfide bond express motifs that were highly enriched in a screen for BK channel targeted peptides (FIG. 11A). […] 60 mV shown. N=6-12. Dotted line indicates baseline (FIGS. 11B and 11C).
FIGS. 13A-1, 13A-2, 13B, 13C-1, 13C-2, 13D-1, and 13D-2. […] Single human BKα (ZERO isoform) channels expressed in HEK293 cells were recorded in inside-out patches before and after 500 nM LS10. Intracellular calcium held at 750 nM. FIGS. 13A-1 and 13A-2: open dwell times before (FIG. 13A-1) and after (FIG. 13A-2) LS10 for a representative recording at 100 mV. Single exponential fit, red line. FIG. 13B: the mean change in peak open dwell times in response to LS10. Paired Student's t-tests compared the pre- and post-peptide peak open durations, *p<0.05, N=5-6). FIGS. 13C-1 and 13C-2: closed dwell times before (FIG. 13C-1) and after (FIG. 13C-2) LS10 for a representative recording at 100 mV. […] Three component exponential fits (gray dotted-lines) and summation (red lines) also indicated. FIGS. 13D-1 and 13D-2: the mean change in peak short (FIG. 13D-1) and long (FIG. 13D-2) duration closed dwell times in response to LS10. Paired Student's t-tests compared the pre- and post-peptide peak open durations, *p<0.05, N=6.
(§1) HEK293 cells (ATCC, Manassas, Va.) were grown according to standard procedures. Cells were cultured at 37° C. in a 5% CO2 atmosphere in Dulbecco's modified Eagle's medium with 1-glutamine, sodium pyruvate and 10% fetal bovine serum (Invitrogen). Cell lines were split with trypsin/EDTA in Hanks' balanced salt solution (Invitrogen) up to 25-30 cycles. For phage display, stable lines stably expressed rSK2 or hBKα ZERO isoform. Cells were transfected (Lipofectamine 2000, Invitrogen) with hGlyRα1 and used 48 hours later. For electrophysiological recordings, cells were transfected with the hBKα ZERO or STREX isoform. Enhanced green fluorescent protein (EGFP) was cotransfected as a marker. Electrophysiological recordings were made 16-72 h after transfection. Although the profile of BK channel composition varies from tissue to tissue, the ZERO BK channel splice variant is widely expressed, particularly in the nervous system, serving as a representative form for studying the modulation of BK channel gating.
Voltage-clamp recordings were performed at room temperature (22-24° C.) using an inside-out configuration on patches pulled from HEK293 cells. The extracellular solution contained the following (in mM): 2 KCl, 136 KOH, 20 Hepes, 2 MgCl2, adjusted to pH 7.2 with MeSO3H. In order to apply peptide to the extracellular surface, patch electrodes (7-20 MΩ in resistance) were tip filled with normal extracellular solution and backfilled with extracellular solution containing LS3. Enough normal extracellular solution was included to provide at least five minutes of peptide-free recording (determined by plotting Po vs. time). The intracellular solution (in the bath) contained the following (in mM): 6 KCl, 132 KOH, 20 Hepes, adjusted to pH 7.2 with MeSO3H. […]
In general terms: Patch clamp records ionic current or voltage across a cell membrane.

The next data set has as its system smooth muscle. The data set can be described thus: Ex vivo preparations of bladder.
Data set [3] relates to inferior colliculus neurons. Particulars: topical 1 μL of 10 μM stock on surface of IC, 5 hours post-application, N=5 mice.
Data set [4] addresses T2, human BKα channel (STREX isoform) (Homo sapiens, UniProt Q12791).
T2 construct: expressed in transfected cells; host or cells: HEK293
The experiment in a line: Patch-clamp recordings of human BKα channels (STREX isoform) expressed in HEK293 cells, inside-out patches. The format is cell-based. The conditions noted are these: 500 nM, 100 mV, intracellular calcium 750 nM. The protocol: (§2) FIGS. 12A, 12B-1, 12B-2, 12C, 12D, and 12E. […] FIGS. 12B-1 and 12B-2: representative three second traces at 100 mV before and after LS10 (500 nM). […] BKα channels expressed in HEK293 cells were recorded in inside-out patches. Intracellular calcium held at 750 nM. […] SLO-1 channels expressed in oocytes cells were recorded in inside-out patches. Intracellular calcium held at 5 μM.
as §1, with “Electrophysiological recordings were made 16-72 h after transfection. Although the profile of BK channel composition varies from tissue to tissue, the ZERO BK channel splice variant is widely expressed, particularly in the nervous system, serving as a representative form for studying the modulation of BK channel gating.” left out
Voltage-clamp recordings were performed at room temperature (22-24° C.) using an inside-out configuration on patches pulled from HEK293 cells. […] Enough normal extracellular solution was included to provide at least five minutes of peptide-free recording (determined by plotting Po vs. time). […]

The target of the next data set is T3, worm BK channel (SLO-1) (Caenorhabditis elegans, UniProt Q95V25).
T3 construct: expressed in transfected cells
T3 sequence (Q95V25 whole entry): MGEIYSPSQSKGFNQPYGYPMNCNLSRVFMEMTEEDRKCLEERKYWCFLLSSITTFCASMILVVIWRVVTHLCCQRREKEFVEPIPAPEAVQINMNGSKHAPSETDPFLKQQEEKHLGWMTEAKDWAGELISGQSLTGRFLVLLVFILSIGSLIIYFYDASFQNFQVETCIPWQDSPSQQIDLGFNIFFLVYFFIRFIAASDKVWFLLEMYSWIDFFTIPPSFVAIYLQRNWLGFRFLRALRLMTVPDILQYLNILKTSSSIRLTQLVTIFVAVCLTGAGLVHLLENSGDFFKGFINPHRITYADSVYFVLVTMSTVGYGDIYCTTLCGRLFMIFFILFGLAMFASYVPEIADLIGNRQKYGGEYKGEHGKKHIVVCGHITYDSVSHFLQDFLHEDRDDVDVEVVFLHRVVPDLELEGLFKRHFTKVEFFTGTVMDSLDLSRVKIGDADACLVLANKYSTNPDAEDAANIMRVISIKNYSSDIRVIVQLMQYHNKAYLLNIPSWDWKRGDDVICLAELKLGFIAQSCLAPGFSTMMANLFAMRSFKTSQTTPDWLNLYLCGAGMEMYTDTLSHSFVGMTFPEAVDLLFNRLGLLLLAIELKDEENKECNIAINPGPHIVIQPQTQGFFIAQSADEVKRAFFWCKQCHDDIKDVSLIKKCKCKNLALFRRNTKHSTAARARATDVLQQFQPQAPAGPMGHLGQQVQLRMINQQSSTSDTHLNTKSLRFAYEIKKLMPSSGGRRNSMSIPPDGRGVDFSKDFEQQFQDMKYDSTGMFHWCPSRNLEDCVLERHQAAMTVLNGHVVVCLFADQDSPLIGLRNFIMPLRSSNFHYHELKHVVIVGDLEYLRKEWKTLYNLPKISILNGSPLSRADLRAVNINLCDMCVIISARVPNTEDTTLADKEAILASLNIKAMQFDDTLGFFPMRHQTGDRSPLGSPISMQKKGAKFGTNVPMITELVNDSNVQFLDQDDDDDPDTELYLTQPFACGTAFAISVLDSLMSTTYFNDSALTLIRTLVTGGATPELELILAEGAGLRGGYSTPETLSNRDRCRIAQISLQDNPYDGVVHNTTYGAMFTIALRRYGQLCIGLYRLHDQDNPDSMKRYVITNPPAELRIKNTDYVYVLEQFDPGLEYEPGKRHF
The data set can be described thus: Inside-out patch recordings of SLO-1 channels expressed in oocytes. The class given is cell-based, C. elegans. Particulars: 100 mV, intracellular calcium 5 μM. As to the method: as §2
FIGS. 14A-1, 14A-2, and 14B. LS10 prevents the potentiation of BK channels by acute ethanol exposure. SLO-1 channels expressed in oocytes cells were recorded in inside-out patches before. Intracellular calcium held at 5 μM. FIGS. 14A-1 and 14A-2: representative three second traces at 100 mV before (upper traces) and after (lower traces) bath application of 50 mM ethanol. […] FIG. 14B: mean Po change in response to ethanol for control recordings (open bars) and in the presence of LS10 (shaded bars). Paired Student's t-tests compared the Po before and after ethanol, *p<0.05, N=5.

T2 sequence (Q12791 whole entry, canonical isoform): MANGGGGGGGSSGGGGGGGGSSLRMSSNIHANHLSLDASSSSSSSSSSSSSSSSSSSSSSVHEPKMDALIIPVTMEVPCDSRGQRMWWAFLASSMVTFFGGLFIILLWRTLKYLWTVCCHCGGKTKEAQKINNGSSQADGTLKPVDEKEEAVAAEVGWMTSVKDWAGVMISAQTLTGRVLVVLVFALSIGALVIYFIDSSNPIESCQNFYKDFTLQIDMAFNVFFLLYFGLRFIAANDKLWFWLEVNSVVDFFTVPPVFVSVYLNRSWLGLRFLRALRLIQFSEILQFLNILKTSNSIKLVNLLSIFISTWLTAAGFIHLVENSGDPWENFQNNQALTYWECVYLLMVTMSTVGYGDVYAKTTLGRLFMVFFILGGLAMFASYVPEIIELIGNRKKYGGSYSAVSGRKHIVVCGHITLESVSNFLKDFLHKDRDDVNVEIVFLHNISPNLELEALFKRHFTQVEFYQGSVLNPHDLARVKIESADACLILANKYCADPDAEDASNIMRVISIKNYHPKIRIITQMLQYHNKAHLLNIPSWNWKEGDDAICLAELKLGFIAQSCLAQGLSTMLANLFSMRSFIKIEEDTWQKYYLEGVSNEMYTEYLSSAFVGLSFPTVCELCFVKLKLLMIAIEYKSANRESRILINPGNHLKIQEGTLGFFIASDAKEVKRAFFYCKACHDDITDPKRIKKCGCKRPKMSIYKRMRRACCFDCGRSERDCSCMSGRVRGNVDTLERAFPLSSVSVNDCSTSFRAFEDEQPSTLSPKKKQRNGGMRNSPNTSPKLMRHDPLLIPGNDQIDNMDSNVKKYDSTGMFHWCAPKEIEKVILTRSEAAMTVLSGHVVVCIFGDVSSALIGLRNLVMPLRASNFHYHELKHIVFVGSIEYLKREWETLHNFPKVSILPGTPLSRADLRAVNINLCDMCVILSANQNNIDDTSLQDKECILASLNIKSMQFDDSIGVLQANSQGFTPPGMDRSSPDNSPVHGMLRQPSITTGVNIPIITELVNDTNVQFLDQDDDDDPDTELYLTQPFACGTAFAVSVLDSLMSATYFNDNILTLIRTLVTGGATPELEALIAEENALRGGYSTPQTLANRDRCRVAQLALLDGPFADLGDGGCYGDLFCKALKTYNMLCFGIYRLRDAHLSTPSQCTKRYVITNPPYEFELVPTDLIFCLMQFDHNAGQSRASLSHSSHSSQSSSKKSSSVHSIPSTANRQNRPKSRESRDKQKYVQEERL

Regarding `CC(C)[C@@H]1NC(=O)CNC(=O)[C@H](CCCNC(=N)N)NC(=O)[C@H](C)NC(=O)[C@@H](N)CSSC[C@@H](C(=O)O)NC(=O)[C@H](C(C)C)NC(=O)[C@H](CCCNC(=N)N)NC(=O)[C@H](Cc2ccc(O)cc2)NC1=O` [LS1, CARGVYRVC] (H-CARGVYRVC-OH; disulfide 1-9; N-terminus and C-terminus assumed), the “crossing of the blood-brain barrier” value in data set [1] was “able to cross the blood-brain barrier”.
For the compound `CC(C)C[C@@H]1NC(=O)CNC(=O)[C@H](CCCNC(=N)N)NC(=O)[C@H](CCCNC(=N)N)NC(=O)[C@@H](N)CSSC[C@@H](C(=O)O)NC(=O)[C@H](C(C)C)NC(=O)[C@H](CCC(N)=O)NC(=O)[C@H](C(C)C)NC1=O` [LS3, CRRGLVQVC] (H-CRRGLVQVC-OH; disulfide 1-9; N-terminus and C-terminus assumed), the IC50 result in data set [2] (suppression of channel openings) is “low hundreds”. In addition, the “crossing of the blood-brain barrier” value in data set [1] is reported as “can cross the blood-brain barrier”. In the data set with smooth muscle, the “anti-BK channel activity in smooth muscle” value is given as “does not show typical anti-BK channel activity in smooth muscle”.
With `CC(C)(O)[C@H]1O[C@H]2CC[C@@]3(C)[C@@](O)(CC[C@H]4Cc5c([nH]c6ccccc56)[C@@]43C)C2=CC1=O` [paxilline], the “reduction in sound driven activity” value in data set [3] turned out to be 87%.
As to CAVGRLAVC (pskan10/LS10 peptide), in data set [2] (500 nM peptide, single channels, intracellular calcium 750 nM, each holding voltage), the “open dwell times / mean open times” value was “shortens open dwell times”. Besides, in data set [2] (500 nM peptide, three-component exponential fits, intracellular calcium 750 nM), the closed dwell times result was “Half of the recordings showed a lengthening in closed times”. Further, the mean open times result in data set [2] (500 nM, 60 mV) is given as “reduce mean open times”. Moreover, the “change in probability of opening (Po)” value in data set [2] (500 nM, 100 mV, intracellular calcium 750 nM) is listed as “little change in the probability of opening”; in data set [4], “little change in the probability of opening”; with worm BK channel (SLO-1) (500 nM), “significant reduction in the probability of opening”. Besides, the “potentiation of the probability of opening (Po) by ethanol” value with worm BK channel (SLO-1) (50 mM ethanol, 500 nM peptide) is “blocked”.
In the case of “reduced form of LS3 (linear): the reduced form of LS3 (linear), without the disulfide bridge (CRRGLVQVC; cyclised or stapled)”, the “post-peptide Po relative to the starting Po” value in data set [2] (500 nM, linear vs cyclic form) is given as “did not alter Po”.
